Results as given in publication PMC1326243 (Nucleic Acids Research, 2006).

B1: B.subtilis RecU Holliday-junction resolvase (enzyme, B. subtilis, UniProt P39792 1-206, looked up)
chain: MIRYPNGKTFQPKHSVSSQNSQKRAPSYSNRGMTLEDDLNETNKYYLTNQIAVIHKKPTPVQIVNVHYPKRSAAVIKEAYFKQSSTTDYNGIYKGRYIDFEAKETKNKTSFPLQNFHDHQIEHMKQVKAQDGICFVIISAFDQVYFLEADKLFYFWDRKEKNGRKSIRKDELEETAYPISLGYAPRIDYISIIEQLYFSPSSGAKG
B2: Bacillus subtilis LrpC (natural protein, B. subtilis, UniProt P96582 1-144, looked up)
chain: MKLDQIDLNIIEELKKDSRLSMRELGRKIKLSPPSVTERVRQLESFGIIKQYTLEVDQKKLGLPVSCIVEATVKNADYERFKSYIQTLPNIEFCYRIAGAACYMLKINAESLEAVEDFINKTSPYAQTVTHVIFSEIDTKNGRG

Target: the molecule itself
Assay: cross-linking

Protein	stoichiometry N
B1	2
B2	≥ 2
